# Measured values from patent publication US20130247232A1 (PRECISION BIOLOGICS, published 2013).
# Ends that are not written are not given here.
# T1: MUC5AC truncation construct 1-85 (human, UniProt P98088 1734-1794)
# T1 chain: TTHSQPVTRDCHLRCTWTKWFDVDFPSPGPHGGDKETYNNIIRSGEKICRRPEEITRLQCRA
# T2: MUC5AC truncation construct 1-136 (human, UniProt P98088 3212-4055)
# T2 sequence: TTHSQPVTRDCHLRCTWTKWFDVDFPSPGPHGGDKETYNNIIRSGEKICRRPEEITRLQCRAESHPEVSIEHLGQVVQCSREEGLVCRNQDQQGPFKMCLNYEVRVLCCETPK
# B1: NEO-101 antibody (chimeric) (antibody, V domains shown)
# VH: QVQLKESGPDLVAPSQSLSITCTVSGFSLSKFGVNWVRQPPGKGLEWLGVIWGDGSTSYNSGLISRLSISKENSKSQVFLKLNSLQADDTATYYCVKPGGDYWGHGTSVTVSS
# VL: QVVLTQSPVIMSASPGEKVTMTCSASSSISYMYWYQQKPGTSPKRWIYDTSKLASGVPARFSGSGSGTSYSLTISNMEAGDAATYYCHQRDSYPWTFGGGTNLEIK
# notes: Chimeric, murine variable regions with human constant regions; Used unlabeled, biotinylated, FITC-labeled or coupled to Dynal beads depending on the assay; also called NPC-1C; NPC-1-C
# Legend:
# [1] = target: B1; assay: competition: phage premixed with NEO-101-coupled beads, then rosetting of CFPAC1 cells
# Experimental: The M13 clones identified by the biopanning were also immunoassayed using magnetic beads. […] CFPAC1 cells (30 μl of 10⁶cells/ml) were added and incubated at 4° C. for 30 min. Rosetted cells were counted (>8 beads/cell).
# [2] = target: B1; assay: ELISA, biotinylated peptide on NEO-101 coated plate
# Experimental: To solve the poor binding of peptides to 96 well plate, peptides were biotinylated using EZ-link micro NHS Biotinylation kit (Pierce Cat#21955), and labeling efficiency checked by dot blot (50%). […] The solution was blocked with 200 μl of 1% milk in TBS at RT for 20 min, Aliquots of 100 μl peptide-biotin (1 μg/ml) in 0.1% milk-TBS were added, and incubated at RT of 2 hr, followed by three washes with TBST. Streptavidin-HRP (100 μl of 1:2000 diluted in 1:10 diluted blocking buffer) was added, and the wells incubated at RT for 1 hr, followed by three washed. TMB was then added, and the wells were read at 450 nm. Positive controls for NPC-1C binding used 4B6-biotin. The results are shown in FIG. 11, which indicates biotinlyated peptides bind to NPC-1C coated plate.
# [3] = target: T1, MUC5AC truncation construct 1-85; assay: immunofluorescence of transfected 293T cells
# Experimental: (§1) Cells were transiently transfected with 2 μg of MUC5AC constructs of Table 8 with LIPOFECTAMINE®. Cells were grown for about 72 hours, fixed with about 4% PFA in PBS, washed with PBS, permeabilized with about 0.2% […] in PBS and washed with PBS. […] Cells were washed with PBS and second anti human-FITC antibody (1:500) was added to all wells and to the second antibody control wells. Cells were washed and mounted on slides with DAPI hard mount. Cover slides were allowed to sit over night at about 4° C. Slides were visualized with a Nikon Eclipse Ti microscope with an Andor camera. At least 3 random fields were counted per transfection.
# [4] = target: T2, MUC5AC truncation construct 1-136; assay: immunofluorescence of transfected 293T cells
# Experimental: as §1
Binder,Positive rosette cells (%) [1] [%],other results
"M13 phage clone 4-1-2-C5 (other, Whole phage particle displaying the peptide on pIII) WHTLPEKSLDENGGGSAETVESCLAKPHTENSFTNVWKDDKTLDRYANYEGCLWNATGVVVCTGDETQCYGTWVPIGLAIPENEGGGSEGGGSEGGGSEGGGTKPPEYGDTPIPGYTYINPLDGTYPPGTEQNPANPNPSLEESQPLNTFMFQNNRFRNRQGALTVYTGTVTQGTDPVKTYYQYTPVSSKAMYDAYWNGKFRDCAFHSGFNEDPFVCEYQGQSSDLPQPPVNAGGGSGGGSGGGSEGGGSEGGGSEGGGSEGGGSGGGSGSGDFDYEKMANANKGAMTENADENALQSDAKGKLDSVATDYGAAIDGFIGDVSGLANGNGATGDFAGSNSQMAQVGDGDNSPLMNNFRQYLPSLPQSVECRPFVFSAGKPYEFSIDCDKINLFRGVFAFLLYVATFMYVFSTFANILRNKES",0,
"M13 phage clone 4-1-3-C9 (other, Whole phage particle displaying the peptide on pIII) FPEDYFRYTNQKGGGSAETVESCLAKPHTENSFTNVWKDDKTLDRYANYEGCLWNATGVVVCTGDETQCYGTWVPIGLAIPENEGGGSEGGGSEGGGSEGGGTKPPEYGDTPIPGYTYINPLDGTYPPGTEQNPANPNPSLEESQPLNTFMFQNNRFRNRQGALTVYTGTVTQGTDPVKTYYQYTPVSSKAMYDAYWNGKFRDCAFHSGFNEDPFVCEYQGQSSDLPQPPVNAGGGSGGGSGGGSEGGGSEGGGSEGGGSEGGGSGGGSGSGDFDYEKMANANKGAMTENADENALQSDAKGKLDSVATDYGAAIDGFIGDVSGLANGNGATGDFAGSNSQMAQVGDGDNSPLMNNFRQYLPSLPQSVECRPFVFSAGKPYEFSIDCDKINLFRGVFAFLLYVATFMYVFSTFANILRNKES",0,
"M13 phage clone 4-1-4-C12 (other, Whole phage particle displaying the peptide on pIII) SLPDDWFRYINYGGGSAETVESCLAKPHTENSFTNVWKDDKTLDRYANYEGCLWNATGVVVCTGDETQCYGTWVPIGLAIPENEGGGSEGGGSEGGGSEGGGTKPPEYGDTPIPGYTYINPLDGTYPPGTEQNPANPNPSLEESQPLNTFMFQNNRFRNRQGALTVYTGTVTQGTDPVKTYYQYTPVSSKAMYDAYWNGKFRDCAFHSGFNEDPFVCEYQGQSSDLPQPPVNAGGGSGGGSGGGSEGGGSEGGGSEGGGSEGGGSGGGSGSGDFDYEKMANANKGAMTENADENALQSDAKGKLDSVATDYGAAIDGFIGDVSGLANGNGATGDFAGSNSQMAQVGDGDNSPLMNNFRQYLPSLPQSVECRPFVFSAGKPYEFSIDCDKINLFRGVFAFLLYVATFMYVFSTFANILRNKES",0,
"M13 phage clone 4-1-3-C8 (other, Whole phage particle displaying the peptide on pIII) WHTLPESGEVTSGGGSAETVESCLAKPHTENSFTNVWKDDKTLDRYANYEGCLWNATGVVVCTGDETQCYGTWVPIGLAIPENEGGGSEGGGSEGGGSEGGGTKPPEYGDTPIPGYTYINPLDGTYPPGTEQNPANPNPSLEESQPLNTFMFQNNRFRNRQGALTVYTGTVTQGTDPVKTYYQYTPVSSKAMYDAYWNGKFRDCAFHSGFNEDPFVCEYQGQSSDLPQPPVNAGGGSGGGSGGGSEGGGSEGGGSEGGGSEGGGSGGGSGSGDFDYEKMANANKGAMTENADENALQSDAKGKLDSVATDYGAAIDGFIGDVSGLANGNGATGDFAGSNSQMAQVGDGDNSPLMNNFRQYLPSLPQSVECRPFVFSAGKPYEFSIDCDKINLFRGVFAFLLYVATFMYVFSTFANILRNKES",0,
"M13 phage clone 4-1-3-C11 (other, Whole phage particle; its peptide served as the control peptide) VHAIEDNWSPRGGGGSAETVESCLAKPHTENSFTNVWKDDKTLDRYANYEGCLWNATGVVVCTGDETQCYGTWVPIGLAIPENEGGGSEGGGSEGGGSEGGGTKPPEYGDTPIPGYTYINPLDGTYPPGTEQNPANPNPSLEESQPLNTFMFQNNRFRNRQGALTVYTGTVTQGTDPVKTYYQYTPVSSKAMYDAYWNGKFRDCAFHSGFNEDPFVCEYQGQSSDLPQPPVNAGGGSGGGSGGGSEGGGSEGGGSEGGGSEGGGSGGGSGSGDFDYEKMANANKGAMTENADENALQSDAKGKLDSVATDYGAAIDGFIGDVSGLANGNGATGDFAGSNSQMAQVGDGDNSPLMNNFRQYLPSLPQSVECRPFVFSAGKPYEFSIDCDKINLFRGVFAFLLYVATFMYVFSTFANILRNKES",38,
"YSHSVHAIEDNWSPRGGGGS (also: biotinylated (position not given here), also called negative control) [synthetic peptide 4-1-3-C11 (control peptide)]",,binding result [2]: no binding (tested: 1 µg/ml)
B1,,binding result [3]: no binding (tested: about 2 µg/ml); binding result [4]: no binding (tested: about 2 µg/ml)
